Laboratory results: patent publication US20250388936A1, “METHODS AND CELLS FOR THE PRODUCTION OF FLUORINATED COMPOUNDS” (priority 2022, published 2025)

Tests used:
[1] = Coupled enzymatic assay, conversion of 5′-FDA into FAld; assay type: biochemical; details: with isomerase^S. cattleya and aldolase^S. coelicolor
Description: Coupled isomerase and aldolase activity was monitored by following the consumption of DHAP, through NADH reduction at 340 nm (ε=6220 M^−1 cm^−1) via the activity of a Glycerol-3-Phosphate Dehydrogenase (GPDH, Sigma Aldrich). 5′-FDRP was produced by incubating chemically synthetized 5′-FDA (Calero et al. 2020) at 7.43 mM with 0.5 U Nucleoside Phosphorylase (PNP1, Sigma Aldrich) in 10 mM Tris buffer, for 16 h at 30° C. The assay was carried in 200 μl total volume at 30° C. over a time course of 3 hours. Reaction conditions were 50 mM Tris-HCl Buffer pH7.5, 200 μM NADH, 200 μM 5′-FDRP, 1 U GPDH and 10 μg purified of each enzyme. The reduction of NADH was followed at absorbance 340 nm in a Microtiter Plate reader (BioTek, Elx808).
We used this enzymatic assay with cell-free extracts of cultures of P. putida KT2440::FRS-T7RNAP expressing an isomerase and an aldolase from S. cattleya (isoSc, isomerase^S. cattleya) and S. coelicolor (aldSc, aldolase^S. coelicolor), respectively, that have been previously shown that are able to use fluorinated intermediates (Deng et al., 2008), as well as both an isomerase (isoBt, isomerase^B. thuringiensis) and an aldolase (aldBt) from B. thuringiensis that have been previously described to perform the same reaction with the non-fluorinated metabolites (Beaudoin 2018). […]

[2] = 96-well end-point (1 h) fluorinase activity assay; assay type: biochemical; details: purified enzymes, increasing SAM concentrations, 5′-FDA by HPLC
Description: (§1) 96-well activity assays were carried out in 150 μL reactions containing 50 mM HEPES pH 7.8, 75 mM KF, ˜1 μM fluorinase (considering the theoretical molecular mass), and 10, 25, 50, 100, 250, or 500 μM SAM (New England Biolabs). 96-well PCR plates were sealed and incubated for 1 h at 37° C., 5 min at 95° C., and cooled to 10° C. in a thermocycler (Bio-Rad). The plates were then centrifuged for 30 min at 2,500×g and 120 μL of supernatants were transferred to round-bottom 96-well plates (Thermo Scientific), which were sealed with a silicone lid for HPLC analysis. Transhalogenation reactions were carried out in the same way, but using increasing concentrations of 5′-CIDA (5′-chloro-5′-deoxyadenosine) in the presence of 1 mM L-Met.
(§2) 5′-FDA was quantified following absorbance at 230 nm using a Zorbax C18 column (3.5 μm 4.6×100 mm, Agilent) connected to a HPLC system (Dionex Ultimate 3000, ThermoFisher) with the following gradient (1 mL/min flow rate): 5-12% solvent B in 1.5 min, 12% solvent B for 1 min, 12-30% solvent B in 2 min, 30-70% B in 1.5 min (solvent A: 0.05% acetic acid in water; solvent B: acetonitrile). A six-point calibration curve (R2>0.99) was prepared with 0.5-50 μM 5′-FDA, which was chemically synthesized as previously described (Calero et al., 2020).

[3] = Steady-state fluorination kinetics of purified fluorinases (5′-FDA by HPLC); assay type: biochemical; details: 50 mM HEPES, pH 7.8, 75 mM KF, varying SAM, 37° C., triplicate
Description: as §1
Steady-state kinetics were performed in the same conditions with slight variations. Triplicate reactions (600 μL final volume) were prepared in 1.5-mL tubes and incubated for 5 min at 37° C. before addition of SAM (1.5625-800 μM), after which 90 μL aliquots were removed at different time-points (2, 5, 10, 15, 20 and 30 minutes), boiled for 5 min at 95° C., and placed on ice. Samples were centrifuged at maximum speed for 10 min at 4° C. before being transferred to 96-well plates for 5′-FDA quantitation by HPLC analysis. Product formation rates for the different substrate concentrations were calculated by least squares linear regression with at least three time-points and fitted to the Michaelis-Menten equation using the Origin software (OriginLab Corporation).
as §2

[4] = Chlorination reaction, KF replaced by KCl; assay type: biochemical
Text: Since FlA^PtaU1 was predicted to be a chlorinase, we evaluated whether it was also active towards SN2-dependent addition of Cl^− onto SAM. […] Previous studies have shown that FlA^Scat can also catalyze the chlorination reaction (Deng et al., 2006). However, this feature requires the simultaneous removal of L-Met or 5′-CIDA, the reaction products, since the reverse dehalogenation reaction is favored. We could observe transhalogenation on 5′-CIDA (i.e. 5′-FDA production in the presence of L-Met and F^−, steps III and I in FIG. 20, respectively; see FIG. 29). Again, FlA^PtaU1 catalytically outperformed all other fluorinases, with a 3-fold higher Vmax value. Although we cannot rule out that FlA^PtaU1 could execute de novo chlorination, it is clear that the 23-residue loop reportedly found in «conventional» fluorinases is not essential for the activity towards F^−.

[5] = assay type: cell-based, Pseudomonas putida KT2440; details: induction with 15 mM NaF, 20 h, 30° C., LC-MS
[6] = End-point (1 h) transhalogenation assay; assay type: biochemical; details: 5′-FDA production from 5′-CIDA, 1 mM L-Met, 75 mM KF, 37° C.
Description: as §1, §2

[7] = Eustaquio et al., 2008; cited from earlier work

B1: DeoD: PNP from E. coli, SEQ ID NO: 15 (protein, listed as Escherichia coli)
chain: MATPHINAEMGDFADVVLMPGDPLRAKYIAETFLEDAREVNNVRGMLGFTGTYKGRKISVMGHGMGIPSCSIYTKELITDFGVKKIIRVGSCGAVLPHVKLRDVVIGMGACTDSKVNRIRFKDHDFAAIADFDMVRNAVDAAKALGIDARVGNLFSADLFYSPDGEMFDVMEKYGILGVEMEAAGIYGVAAEFGAKALTICTVSDHIRTHEQTTAAERQTTFNDMIKIALESVLLGDKE
- conversion of 5′-FDA into FAld [1]: conversion was higher

B2: FIA^PtaU1: fluorinase of Methanosaeta sp. PtaU1.Bin055, SEQ ID NO: 1, accession OPY51785.1 (protein, listed as Methanosaeta sp.)
chain: MLQNTKNEYKPRDGGGHRPIIGFMSDLGTEDDSVGICKGVMLGLCPDAVIVDISHSMTPWDIDQGSRLIVDLPKFFPNWTTFATTSYRETGTSARSVAIKLPSGHVYVAPNNGLLTRVIEDHGYVEAYEVTTVGAIPAEPEPTWFSRDMVAYPAAAIAAGFPLENVGRPLNDSEIVRADLPRYTQAEDGIIQGIVTTIDRPFGNIWTNIPRRIIENELRIAYGTNIRVVLDNLLVLEVPFMRTFGDVGLKKPMCYINSRGYFSLAYYGGNLADPYNIRRGMPVKIESITR
modifications: Methanosaeta sp. PtaU1.Bin055
- 5′-FDA synthase activity [2]: one of the top performers
- Km [3]: 6.99 ± 1.06 µM
- kcat [3]: 0.00683 ± 0.00017 s⁻¹
- 5′-CIDA accumulation [4]: no 5′-CIDA accumulation could be detected
- Production of 5′-FDA in vivo [5]: could be detected
- intracellular 5′-FDA, fold higher with respect to the other three fluorinase genes [5]: 6- to 12 fold
- Vmax, fold higher than all other fluorinases [6]: 3 fold

B3: SalL^Stro: chlorinase from Salinispora tropica CNB-440, accession 2Q6L_A (protein, UniProt A4X3Q0 1-283, looked up)
Adenosyl-chloride synthase: MQHNLIAFLSDVGSADEAHALCKGVMYGVAPAATIVDITHDVAPFDVREGALFLADVPHSFPAHTVICAYVYPETGTATHTIAVRNEKGQLLVGPNNGLLSFALDASPAVECHEVLSPDVMNQPVTPTWYGKDIVAACAAHLAAGTDLAAVGPRIDPKQIVRLPYASASEVEGGIRGEVVRIDRAFGNVWTNIPTHLIGSMLQDGERLEVKIEALSDTVLELPFCKTFGEVDEGQPLLYLNSRGRLALGLNQSNFIEKWPVVPGDSITVSPRVPDSNLGPVLG
- activity on F^− [7]: inactive on F^−

B4: FIA^MA37: fluorinase of Streptomyces sp. MA37, SEQ ID NO: 30, accession CDH39444.1 (protein, listed as Streptomyces sp.)
chain: MAANGSQRPIIAFMSDLGTTDDSVAQCKGLMHSICPGVTVVDVCHSMTPWDVEEGARYIVDLPRFFPEGTVFATTTYPATGTTTRSVAVRIRQAAKGGARGQWAGSGDGFERADGSYIYIAPNNGLLTTVLEEHGYIEAYEVTSTKVIPANPEPTFYSREMVAIPSAHLAAGFPLAEVGRRLDDSEIVRFHRPAVEISGEALSGVVTAIDHPFGNIWTNIHRTDLEKAGIGQGKHLKIILDDVLPFEAPLTPTFADAGAIGNIAFYLNSRGYLSLARNAASLAYPYNLKAGLKVRVEAR
modifications: Streptomyces sp. MA37
- Km [3]: 4.42 ± 0.58 µM
- kcat [3]: 0.00267 ± 0.00017 s⁻¹
- Production of 5′-FDA in vivo [5]: could be detected
